{
  "source": "patent US9951373B2",
  "about": "“Oplophorus-derived luciferases, novel coelenterazine substrates, and methods of use” (Promega Corporation, priority 2010, dated 2018)",
  "key": {"HEK293 cells [1]": {"tested_on": "HEK293 cells", "conditions": "mole-to-mole basis, HT7 fusions"}, "NIH3T3 cells": {"tested_on": "NIH3T3 cells", "experiment": "Luminescence of OgLuc variants expressed in NIH3T3 cells", "assay_type": "cell-based", "conditions": "PBI-3939", "protocol": "(§1) The PCR library in the pF4Ag-based non-fusion background was screened for additional variants with increased luminescence compared to 9B8 opt+K33N+170G (SEQ ID NOs: 68 and 69). Selected variants were then assayed in HEK293 and NIH3T3 cells. For each cell type, 15,000 cells were plated and grown overnight at 37° C. The next day, the cells were transfected as described in Example 25 with 10 ng pGL4.13 (Promega Corp.) as a transfection control and 100 ng of the OgLuc test DNA. The media was removed, and the cells were lysed with 100 μL of lysis buffer as described in Example 25 except the lysis buffer contained 100 mM MES pH 6.0 instead of HEPES, and luminescence measured using a GLOMAX® Luminometer.\n(§2) Based on the above data, further combination variants were designed and generated (see Table 10) in the context of the pF4Ag-based non-fusion vector background without the 170G. The variants were analyzed in E. coli, HEK293 and NIH3T3 cells as described above and compared to 9B8 opt+K33N. The variants were also examined for luminescence with native coelenterazine.\n(§3) The brightness of the variants expressed in HEK293 and NIH3T3 cells was measured as described previously. The luminescence of the variants was normalized to the luminescence generated by 9B8 opt (Table 27)."}, "[2]": {"experiment": "Stability of variants expressed in HEK293 cells", "assay_type": "physicochemical", "conditions": "20 μM PBI-3939", "protocol": "The variants 9B8 and V2 (9B8+K33N+T39T+K43R+Y68D) were also screened in HEK293 cells to determine their stability. The variants were cloned into pF4Ag and transfected into HEK293 cells (15,000 cells/well) as previously described. After transfection, the cells were lysed in assay reagent (as previously described; no PBI-3939), and luminescence measured using the assay reagent with 20 μM PBI-3939. […] This is consistent with the half-life seen for these variants in E. coli (Table 26)."}, "HEK293 cells [3]": {"tested_on": "HEK293 cells", "experiment": "Luminescence of OgLuc variants expressed in HEK293 cells", "assay_type": "cell-based, human", "conditions": "PBI-3939", "protocol": "as §1, §2, §3"}, "[4]": {"experiment": "Enzyme kinetics of OgLuc variants in E. coli lysates", "assay_type": "biochemical", "conditions": "PBI-3939, E. coli lysates", "protocol": "Using methods known in the art, enzyme kinetic assays measuring luminescence were performed with the lysates of E. coli containing IV and the IV variants 15C1, 9B8, 9F6, and 9A3. […] Two fold serial dilutions of PBI-3939 in the assay buffer described previously in Example 26 were assayed with the diluted lysates. […] Variants 9B8 and 9F6 had higher Km values compared to IV while Km values for the other variants were unchanged.\nLuminescence was measured on a TECAN® INFINITE® F500 luminometer.\nThe enzyme kinetics values were determined for the OgLuc variants as described previously, except luminescence was measured using a GLOMAX® luminometer. Three replicates were used for each variant."}, "[5]": {"experiment": "Luminescence of 9B8 opt+K33N derived variants in E. coli", "assay_type": "biochemical", "conditions": "bacterial lysates", "protocol": "Luminescence generated from the lysates was measured using the novel PBI-3939 and native coelenterazine as substrates. The relative specificity of the variants for PBI-3939 and native coelenterazine was calculated as described previously.\nA new OgLuc library was created using 9B8opt+K33N as a starting template. The random library was created using DIVERSIFY® PCR Random Mutagenesis Kit (ClonTech; Catalog #630703). Condition 5 (as listed in the user manual) was used to generate additional variants, and the average mutation rate was calculated to be 2.6 mutations per gene by compiling sequence data from 83 randomly selected clones. This PCR library was cloned into the pF4Ag-based, non-fusion vector background described previously and the sandwich background, i.e., Id-OgLuc-HT7 (described in Example 45). Variants in the pF4Ag-base non-fusion vector background are designated with (NF). Variants in the sandwich vector background are designated with (F). In order to clone the PCR product into both vectors, an amino acid, i.e., a glycine, was appended to the variant sequence in pF4Ag, generating a new position 170 in the OgLuc variant (“170G”). The 170G is present in the sandwich construct, but in this case is considered part of the linker between OgLuc and HT7. For each library, 4,400 E. coli clones were assayed as described previously with the following exceptions. […] The assay buffer contained 100 mM MES pH 6.0 instead of HEPES, and 35 mM thiourea. The assay volumes were as follows: 10 μL cells, 40 μL, lysis buffer, and 50 μL, assay buffer.\nE. coli lysates containing the variants were prepared and analyzed as described previously. Luminescence generated from the lysates was measured using the novel PBI-3939 and native coelenterazine as substrates. The luminescence of the variants was normalized to the luminescence generated by 9B8 opt (Table 12). The relative specificity of the variants for PBI-3939 and native coelenterazine was calculated by dividing the luminescence of the variants using PBI-3939 as a substrate with the luminescence of the variants using native coelenterazine as a substrate (Table 12)."}, "[6]": {"experiment": "Stability of secreted OgLuc variants in saved media", "assay_type": "physicochemical", "conditions": "secreted variant in saved media", "protocol": "To determine if the secretion signal sequence of OgLuc facilitates its secretion, the OgLuc variants 9B8, V2 and L27V were cloned into pF4Ag containing an N-terminal OgLuc secretion signal sequence. The variants were also cloned into vectors without the secretion signal sequence. CHO or HeLa cells were then plates at 100,000 cells/well in 1 mL F12 media with 10% FBS and 1× sodium pyruvate (CHO cells) or DMEM with 10% FBS and 1× sodium pyruvate (HeLa cells) into 12-well plates and incubated overnight at 37° C., 5% CO2.\nAfter the overnight incubation, the cells were transfected with 1 μg plasmid DNA containing 9B8, V2, or L27V with or without the secretion signal sequence using the TRANSIT®-LT1 transfection reagent (Mirus Bio) and OPTI-MEMO media (Invitrogen). The cells were again incubated overnight at 37° C., 5% CO2.\nAfter the second overnight incubation, the media was removed and saved for analysis. […] To 10 μL of cell lysate or saved media from each sample, 50 μL assay buffer with 40 μM PBI-3939 was added, and luminescence measured as described above.\nTo determine the stability of the secreted variants, 150 μL aliquots of the saved media from each sample was placed at 37° C. or 50° C. The aliquots were then removed at different time points (0, 1, 2, 3, 5, 6, and 7 […]), frozen on dry ice, and kept at −20° C. until assayed. To assay for stability, the media aliquots were thawed to room temperature, and 10 μL of each aliquot was mixed with assay buffer with PBI-3939 (pH 6.0) as described above. Luminescence was measured as above, and the half-life (t50) determined (Table 34)."}, "[7]": {"experiment": "Thermal stability of OgLuc variants at 60° C.", "assay_type": "physicochemical", "conditions": "60° C., assay buffer MES pH 6.0", "protocol": "Aliquots were removed at different time-points and placed on dry ice to freeze the samples. […] Luminescence was measured on a GLOMAX® luminometer (Promega Corp.).\nThe thermal stability of the variants at 60° C. was examined as described above, except the assay buffer contained 100 mM MES pH 6.0 instead of HEPES."}, "[8]": {"experiment": "Protein (thermal) stability of OgLuc variants at 50° C.", "assay_type": "physicochemical", "conditions": "bacterial lysates, native coelenterazine", "protocol": "Lysates of E. coli containing 15C1, 9B8, 9F6, 8A3 or IV and E. coli expressing hRL (SEQ ID NO: 30 and 31) were prepared from induced cultures as described previously. Lysate samples were diluted 1:1000 with a buffer containing 10 mM HEPES pH 7.5 with 0.1% gelatin. Diluted lysate (100 μL) samples, in replicate 96-well plates, were incubated at 50° C. At different time points, plates were placed at −70° C. (minus seventy degrees Celsius). Prior to measuring the luminescence as described previously, each plate was thawed at room temperature, i.e., 22° C., for 10 min. Samples (10 μL of each thawed sample) were assayed using native coelenterazine as a substrate. Luminescence was measured immediately after addition of assay buffer for each time point plate. The half-life of the protein, which indicated protein stability, was calculated from the luminescence data for each time point using methods known in the art."}},
  "data": [
    {"molecule": "9B8: IV variant with Q18L, F68Y, L72Q, M75K (SEQ ID NO: 19) (protein) MVFTLEDFVGDWRQTAGYNLDQVLEQGGLSSLFQKLGVSVTPIQKIVLSGENGLKIDIHVIIPYEGLSGYQMGQIEKIFKVVYPVDDHHFKVILHYGTLVIDGVTPNMIDYFGRPYEGIAVFDGKKITVTGTLWNGNKIIDERLINPDGSLLFRVTINGVTGWRLCERILA", "values": [
      {"measurement": "fold brighter than Luc2", "setting": "HEK293 cells [1]", "result": "approximately 15 fold"},
      {"measurement": "fold brighter than hRL", "setting": "HEK293 cells [1]", "result": "> 100", "unit": "fold"},
      {"measurement": "luminescence normalized to 9B8 opt, NIH3T3", "setting": "NIH3T3 cells", "result": 1.0},
      {"measurement": "half-life", "setting": "[2]", "result": 5.2, "unit": "h"},
      {"measurement": "luminescence normalized to 9B8 opt, HEK293", "setting": "HEK293 cells [3]", "result": 1.0},
      {"measurement": "Km", "setting": "[4]", "result": 7.7, "unit": "µM"},
      {"measurement": "Vmax", "setting": "[4]", "result": "86,000,000 RLU/0.5 sec"},
      {"measurement": "Fold over coelenterazine", "setting": "[5]; luminescence with PBI-3939 divided by luminescence with native coelenterazine", "result": 7},
      {"measurement": "Fold over 9B8", "setting": "[5]; luminescence with PBI-3939 normalized to 9B8 opt", "result": 1.0},
      {"measurement": "½ life 37 C.", "setting": "[6]", "result": 8, "unit": "days"},
      {"measurement": "½ life 50 C.", "setting": "[6]", "result": 3, "unit": "h"},
      {"measurement": "1/2 life hours", "setting": "[7]", "result": 5.1, "unit": "h"},
      {"measurement": "½ life (hrs)", "setting": "[8]", "result": 5.8, "unit": "h"},
      {"measurement": "½ life (min)", "setting": "[8]", "result": 346.6, "unit": "min"}
    ]}
  ]
}
